According to article PMC7035355:

Target: FBW7 (UniProt Q969H0)
Test: co-immunoprecipitation, immunoblot
Conditions: reference: wild type Mcl-1; sites S159

Mcl-1 (from UniProt Q07820) S159A
binding against the reference: weaker
